Legend:
elastin = assay: Elastin assay (Fastin colorimetric assay of culture media); type: cell-based, human; conditions: summary in words
Description: Elastin is released by fibroblasts (soluble elastin) into the extracellular space where it is then cross-linked to other elastin proteins to form an extensive network of fibers and sheets (insoluble elastin). Soluble elastin can be readily measured from cell culture medium via a colorimetric assay.
The test materials were tested in triplicate.
In these experiments, the Biocolor Fastin Elastin Assay kits were used. A 50 μl aliquot of sample material (cell culture medium for soluble elastin) was mixed with 1.0 ml of cold Fastin Precipitating Reagent in a 1.5-ml microcentrifuge tube. […]
To release the elastin-bound dye, 1.0 ml of Fastin Destain reagent was added to each microcentrifuge tube. […] The absorbance of this solution was measured by a plate reader at 490 nm (200 μl volume read).
An elastin standard curve was generated using 12.5, 25, and 50 μg aliquots of an Elastin Standard into microcentrifuge tubes (in duplicate). These samples were treated as described above (Elastin Assay) and the absorbance values were used to generate a standard curve of known concentrations. To derive the standard curve for the elastin assay, the absorbance was plotted against the elastin concentration in μg/ml for the standards. […] Mean absorbance values for the test materials and untreated samples were then used to estimate the amount of elastin present in each sample.

[1] = system: Fibroblasts (HDFn Cell Line); assay: Initial pilot cell viability dose response (MTT assay); conditions: for cell viability, percent of untreated cells: 48 hours
Description: Initial screening was conducted to identify a test range suitable to determine the effect of a broad range of test material concentrations on cell viability. […] Cultured fibroblasts were exposed to the test materials for 48 hours and then changes in cell viability were determined using an MTT assay (i.e., a colorimetric analysis of the metabolic activity of the cultured cells, described in greater detail below).
The purple crystals are extracted from the cells with isopropanol and the amount of crystal formation quantified spectrophotometrically. […] A decrease in color intensity can be a sign of toxicity.
Fibroblasts (Cascade Biologics, HDFn Cell Line, lot#1C0914) were seeded into the individual wells of either a 96-well plate (for the initial pilot work to determine concentration effects on cell viability) in 100 μl of Fibroblast Growth Media (FGM) or in 12-well plates (for the measurement of collagen, elastin and MMP-1) in 1.0 ml of FGM and incubated overnight at 37±2° C. and 5±1% CO2. On the following day, the medium was removed via aspiration to eliminate any non-adherent cells and replaced with fresh FGM. The cells were grown until confluent, with a media change every 48 to 72 hours. Upon reaching confluency, the cells were treated for 24 hours with Dulbecco's Modified Essential Media (DMEM) supplemented with 1.5% FBS to wash out any effects from the growth factors included in the normal FGM. After this 24-hour wash out period, the cells were treated with the test materials at the specified concentrations dissolved in DMEM with 1.5% FBS. Untreated cells (negative controls) received DMEM with 1.5% FBS. The cells were incubated for 48 hours and at the end of the incubation period cell culture medium was either discarded (pilot work) or collected and stored frozen at −75° C. The test materials were tested in triplicate.
After the 2-day incubation, the cell culture medium was removed and the fibroblasts were washed twice with PBS to remove any remaining test material. After the final wash, either 100 μl (96-well plates) or 300 μl (12-well plates) of DMEM supplemented with 0.5 mg/ml MTT were added to each well and the cells were incubated for 1 hour at 37±2° C. and 5±1% CO2. After the incubation, the DMEM/MTT solution was removed and the cells were washed again once with PBS and then either 100 μl (96-well plates) or 1 ml (12-well plates) of isopropyl alcohol were added to each well to extract the purple formazin crystals. For the 12-well plates, two hundred microliters of the isopropyl extracts was transferred to a 96-well plate. The 96-well plates were read at 540 nm using isopropyl alcohol as a blank. The mean MTT absorbance value for the negative control cells was calculated and used to represent 100% value for cell viability. The individual MTT values from the cells undergoing the various treatments were then divided by the mean value for the negative control cells and expressed as a percent, to determine the change in cell viability caused by each treatment.

[2] = UVB protection, initial MTT assay (material applied after UVB); conditions: human, cultured dermal fibroblasts
Description: (§1) In these experiments, the test material was tested at six concentrations with two duplicate sets of cells prepared. […] Changes in cell viability were then determined 48 hours post material application via an MTT assay, as described above.
(§2) Fibroblasts were seeded into the individual wells of a 96 well plate in 100 μl FGM, and incubated overnight at 37±2° C. and 5±1% CO2. On the following day, the media were removed via aspiration to eliminate any non-adherent cells and replaced with 100 μl of fresh FGM. The cells were grown until confluent, with a media change every 48 to 72 hours.
(§3) An UVLM-26 lamp was used as the source of UVB light. UV light intensity was measured using a UVX radiometer coupled to a UVB sensor probe (UV Products) to determine the time required to deliver an approximate dose of 50 mj/cm^2. Prior to UVB exposure, the FGM was replaced with 100 μl PBS. After exposure, the PBS was removed and replaced with FGM supplemented with either the test materials, 20 μM Trolox, or left unsupplemented. A duplicate set of cells was also prepared and treated as described above, with the exception that they were not exposed to UVB light. […] The cells were allowed to incubate with the test materials for 48 hours, and then changes in cell viability were determined via an MTT assay. […]
(§4) After the 48-hour incubation, the cell culture medium was removed and the fibroblasts were washed with PBS to remove any remaining test material. […] The 96-well plate was then read at 540 nm using isopropyl alcohol as a blank.
(§5) The mean MTT absorbance value for the negative control cells (non-UVB exposed and non test material treated cells) was calculated and used to represent 100% value for cell number. The individual MTT values from the cells undergoing the various treatments was then divided by the mean value for the negative control cells and expressed as a percent, to determine the change in cell viability caused by each treatment. MTT scores for each treatment are expressed as means±the standard deviation of the mean.

[3] = system: cultured dermal fibroblasts; assay: as above; conditions: Homo sapiens, Fibroblast, light or radiation study, 48 h, read-out: +UVB Percent Viability
Description: as §1, §2, §3, §4, §5

elastase = assay: Elastase inhibition assay (fibroblast lysate, STANA substrate); type: biochemical, human; conditions: positive control
Description: The RSPP test materials were also tested to determine their effect(s) on elastase activity. In these experiments, human dermal fibroblasts were used as a source of the elastase enzyme. This enzyme was partially purified from the fibroblasts by lysing the cells in an elastase buffer and retaining the soluble portion of the lysate. Portions of this fibroblast lysate were then incubated with test materials and a synthetic elastase substrate, Suc-(Ala3)-p-Nitroaniline (STANA). Elastase acts upon this substrate to release p-nitroaniline, which can be detected spectrophotometrically by measuring the absorbance at a wavelength of 405 nm. […]
The fibroblasts were washed twice with 15 ml of phosphate buffered saline with each wash removed via aspiration. […] The protein concentration of the fibroblast lysate was determined using the Pierce BCA Protein Assay kit (see below for details) and the fibroblast lysate was stored at −75° C. until used (for up to 1 year).
Upon determining the protein concentration of the lysate, a small sample was obtained and the elastase activity of the lysate was determined at 1×, 0.5× and 0.25× concentrations. The activity was determined for each of the different concentrations in exactly the same way that the uninhibited sample was treated in the elastase assay (see below). […] After 1.25 hours, the well plate was removed and read in a 96-well plate reader at 405 nm. […]

Compound: GC2596-26-A: monodispersed 13-mer SELP47K RSPP (Example 1)
- effect on elastin synthesis (elastin): excellent increase
- cell viability, percent of untreated cells ([1]; 0.0014%): 99 ± 1%
- cell viability, percent of untreated cells ([1]; 0.007%): 101 ± 5%
- cell viability, percent of untreated cells ([1]; 0.014%): 99 ± 10%
- cell viability, percent of untreated cells ([1]; 0.07%): 96 ± 6%
- cell viability, percent of untreated cells ([1]; 0.14%): 101 ± 4%
- cell viability, percent of untreated cells ([1]; 0.5%): 171 ± 4%
- cell viability, percent of untreated cells ([1]; 1%): 138 ± 7%
- effect on the number of viable cells ([1]; initial dose response, summary in words): strongly stimulate increases in the number of viable cells

Compound: Cc1c(C)c2c(c(C)c1O)CCC(C)(C(=O)O)O2 (stereo not shown) [Trolox]
- viability at 48 h, 20 µM [2]: 120 ± 11%
- viability at 20 µM [3]: 77 ± 9%

Compound: CC(C)C[C@H](NP(=O)(O)O[C@@H]1O[C@@H](C)[C@H](O)[C@@H](O)[C@H]1O)C(=O)N[C@@H](Cc1c[nH]c2ccccc12)C(=O)O [Phosphoramidon, phosphoramidon, reference compound]
- Percent Inhibition (elastase; 30 nM): 43%
- Percent Inhibition (elastase; 100 uM): 96%

Source: patent US20130059772A1, “Use of Repeat Sequence Protein Polymers in Personal Care Compositions” (DANISCO US INC., priority 2003, published 2013)
